# Assay results from patent US11814689B2 (priority 2021, dated 2023).
# B1: TtCan1: Can1 from Thermus thermophilus, NCBI WP_011229147.1, SEQ ID NO. 61 (protein, listed as Thermus thermophilus)
# chain: MQAPVYLCLLGNDPAPAYLGLKVVEREAGRVAKAVFYSFPAWNEEYGKKRQAFFRLLSEKGVLYEERPLEKGLEEAEAREVWVNLTGGAKYWAVRFLGHWRRPGARVFLVEGHRALEAPRALFLWPREEERSLEAEALTLEEYARLYLEPLGEAWERVSPPGAFPPGAQAARLPGREGGVFVVHRGLPYWYWVRPHLGGEAKDMSRKALSAFSGEAKRLGGQLCLPVVPYHKAHLRSRHPKERENVFARWRAWAREYGVFLVDPGRPLEEEVASLIKGKASKKALPLPQEGPLLLALVSEQAVPLYAAYLHAGPREVYLLTTPEMESRLRWAEAFFRGKGVRVHRSFLSGPWALREVRDLLAPVVEEALRRGHPVHANLNSGTTAMALGLYLALRDGARAHYLDGDRLLLLDGGEAEVPWEEGRPEDLLALRGYRFEEEYPDARPDPGLLALAEEILRRWDEVQTSWEASPLVRRFLKFWKKRFGQAFPPKRLSRLKGLPLEYAVYSHLNAHLAPKGGQARMGGHLVPLGGNEALAPQSTEVDGVFFHRGALWFVECKPTDEGLRERAPIMAELVRSVGGVEARGLMVARRWRGAPPPASPNLVYMALEGGEGVGVYRFPEELEKALSRNPAPRRG
# B2: AaCan2: Can2 from Archaeoglobi archaeon JdFR-42, JGI 2730024700, SEQ ID NO. 59 (protein)
# chain: MSHIHVCLVSDQAIPNLTTALQFNPDTTVLLSTNEMKDKAKRLETVLKNKGLKVKTLKISAYDINDVITVSESLLNDCKGCKVSLNITGGTKIGTLGTFQVFYTASKPIFYVNTKDNEIIKLYPEKEQQKYPIEISISIKDYLAVYGFNVKSYVKDDSYIYKRKKVTDYLANLVIHRPNIIGEINYKLQNFEEKSYPLKINITKNKQVIKLYDILKDSGLVKIRNKSTIEIPDVETAKYLNGIWFEEYVYMMAKSLGADEVKLNVKGVWDTVGKHPPTNEFDILISKGNRLFYISCKTANPDRKIDDTDETIGKEYLYELDSISDSALGLFGKRMLASARAIKNDYVRKRAEILKIDIADGQNIATLKGKLQQWLSK
# modifications: Archaeoglobi archaeon
# B3: CtNucC: NucC from Clostridium tepidum, NCBI WP_195923598.1, SEQ ID NO. 55 (protein, listed as Clostridium tepidum)
# chain: MGQIDIKSLFYSLQTQMCAKLSTNRQHIQHPGIKGDSSELNWIEWLKTYLPKRYSVDKAFIIDCDGNMSDQIDVVIYDQQYSPFVFNQDNAYYIPAESVYAIFEVKQEINKENIIYAGDKTKSVRSLKRTSTAIPHAGGYYAPKPHNKILSGILTLSSVWNPPLGKSFEEAIYSLEDESKLDIGCILAEGSFLADYKNDVLMKSTEEESLIFFFLKLLIELQSLGTTPAIDINCYGRALDSI
# Experiments:
# plasmid DNA [1] = assay type: biochemical
# [2] = system: fluorescent ssRNA reporter; assay type: biochemical
# plasmid DNA [3] = system: plasmid DNA
# [4] = system: 2 Kb DNA reporter labelled biotin and digoxigenin; assay type: biochemical
# ssRNA = assay type: biochemical; conditions: 425 nM ssRNA, 200 nM nuclease, cyclic oligoadenylates
# ssDNA = assay type: biochemical; conditions: for ssDNA cleavage activity: 425 nM ssDNA, 200 nM nuclease, cyclic oligoadenylates
# SARS-CoV-2 RNA = assay type: biochemical
# cA3 and cA4 = assay type: biochemical
# [5] = system: library of 46 synthetic RNAs; assay type: biochemical
# SARS-CoV-2 N gene RNA = assay type: biochemical; conditions: IVT SARS-CoV-2 N gene fragment spiked in total RNA of negative swab, no RNA capture
# [6] = system: fluorescent dsDNA reporter; assay type: biochemical
molecule,measurement,setting,value
B1,plasmid DNA cleavage with cA4,plasmid DNA [1],comparable to the background activity
same,size of plasmid DNA degradation fragments,plasmid DNA [1],~100 bp
same,RNA reporter cleavage compared with AaCan2,[2],requires higher concentrations of cA4 and produces less fluorescent signal
same,DNA sequence cleavage preference,plasmid DNA [3],non-sequence specific
same,lateral flow result with cA3,[4],positive result
same,lateral flow result with cA4,[4],negative result
same,ssRNA cleavage activity,ssRNA,cA4-dependent single-stranded RNase
same,ssDNA cleavage activity,ssDNA,does not cleave ssDNA
B2,"dsDNase activity, activator and metal dependence",plasmid DNA [1],Mn^2+- and cA3-dependent dsDNase
same,cA4 concentration giving a similar fluorescent signal,[2],0.5 nM
same,cA4 range in which rate of fluorescent signal is proportional to activator,[2],1 to 10 nM
same,fold less cA4 needed than TtCsm6 for similar fluorescent signal,[2],20 fold
same,SARS-CoV-2 RNA concentration detected directly in swabs,"SARS-CoV-2 RNA; RNA capture with AaCan2 readout, no RNA extraction or pre-amplification",5×10^4 copies/μL
same,Ct of unprocessed swab samples detected,"SARS-CoV-2 RNA; no RNA purification, lysis buffer 0.05% Triton X-100 and 1 mM EGTA, AaCan2 readout",> 21.2
same,loss of sensitivity compared to detection using purified RNA,SARS-CoV-2 RNA; unprocessed swab vs purified RNA,~5 fold
same,ring-nuclease activity on cyclic nucleotide activator,cA3 and cA4,binds and preserves the cyclic nucleotide
same,ssRNA sequence cleavage preference,[5],ACGACG
same,ssRNA cleavage activity,ssRNA,ssRNase when activated with cA4
same,ssDNA cleavage activity,ssDNA,Reproducible cleavage of ssDNA is also detectable
same,cA4 concentration required for robust ssDNA cleavage,ssDNA; Mn^2+-specific,45 nM
same,target RNA concentration detected by TtCsm assay coupled with the nuclease,SARS-CoV-2 N gene RNA,10^5 copies/μL
B3,dsDNase activity among three thermophilic NucC orthologs,plasmid DNA [1],highest dsDNase activity
same,size of plasmid DNA digestion fragments,plasmid DNA [1],300-400 bp
same,target RNA concentration detected by TtCsm assay coupled with the nuclease,SARS-CoV-2 N gene RNA,10^7 copies/μL
same,cA3 sensitivity relative to AaCan2,[6],100 fold
same,cA3 sensitivity relative to TtCan1,[6],10 fold
same,lowest concentration of cA3 detected,[6],0.5 nM
